Substitutions are numbered along the chain they refer to. Where two headings read alike, the source gives them in different places.
Columns and labels:
[1] = biological target: SARS-CoV-2 Spike RBD-His Tag, Sino Biological (SARS-CoV-2)
[2] = biological target: SARS-CoV-2 Spike RBD-His Tag, Sino Biological (SARS-CoV-2); remark: listed apart in the source
[3] = biological target: SARS-CoV-2 Spike RBD-His Tag, Sino Biological (SARS-CoV-2); remark: listed apart in the source
[4] = biological target: SARS-CoV-2 Spike RBD-His Tag, Sino Biological (SARS-CoV-2); remark: listed apart in the source
[5] = biological target: CoV-2 (SARS-CoV-2)
[6] = biological target: CoV-2 (SARS-CoV-2); remark: listed apart in the source
[7] = biological target: CoV-2 (SARS-CoV-2); remark: listed apart in the source
[8] = biological target: CoV-2 (SARS-CoV-2); remark: listed apart in the source
[9] = biological target: CoV-2 (SARS-CoV-2); remark: listed apart in the source
[10] = biological target: SARS-CoV-2 Spike RBD-His Tag, Sino Biological (SARS-CoV-2); remark: listed apart in the source
[11] = biological target: SARS-CoV-2 Spike RBD-His Tag, Sino Biological (SARS-CoV-2); remark: listed apart in the source

B1: vhh_tstrep_sars2_pjl1_L_74 (VHH)
VHH: QVQLQESGGGLVQAGGSLRLSCAASGRTFSEYAMGWFRQAPGKEREFVATISWSGGATYQTDSVKGRFTISRDNAKNTVYLQMNSLKPDDTAVYYCAAAGLGTVVSEWDYDYDYWGQGTQVTVSS
xmid (log10) [1]: -0.787
xmid (log10) [2]: -0.413

B2: vhh_tstrep_sars2_pjl1_L_79 (VHH)
VHH: B1 VHH with Q60T
xmid (log10) [1]: -1.02
xmid (log10) [2]: -1.01

B3: vhh_tstrep_sars2_pjl1_L_145 (VHH)
VHH: B1 VHH with W53L, Q60H
xmid (log10) [3]: 0.562
xmid (log10) [4]: 0.668

B4: vhh_tstrep_sars2_pjl1_L_35 (VHH)
VHH: B1 VHH with A57S, Q60Y, A98G
xmid (log10) [5]: -0.501
xmid (log10) [6]: 0.355
xmid (log10) [7]: 0.231

B5: vhh_tstrep_sars2_pjl1_L_47 (VHH)
VHH: B1 VHH with A57S, Q60Y, Y112A
xmid (log10) [6]: 0.716
xmid (log10) [8]: 1.45
xmid (log10) [9]: -0.708

B6: vhh_tstrep_sars2_pjl1_L_99 (VHH)
VHH: B1 VHH with Q60Y, D109A, Y114A
xmid (log10) [10]: -0.384
xmid (log10) [11]: -0.202

— US20240059759A1
